Legend:
[1] = biological target: T1, TROP2 on TROP2-positive NCI-H1975 cells (human, UniProt P09758 27-323); experiment: cell-based or functional assay
T1 sequence: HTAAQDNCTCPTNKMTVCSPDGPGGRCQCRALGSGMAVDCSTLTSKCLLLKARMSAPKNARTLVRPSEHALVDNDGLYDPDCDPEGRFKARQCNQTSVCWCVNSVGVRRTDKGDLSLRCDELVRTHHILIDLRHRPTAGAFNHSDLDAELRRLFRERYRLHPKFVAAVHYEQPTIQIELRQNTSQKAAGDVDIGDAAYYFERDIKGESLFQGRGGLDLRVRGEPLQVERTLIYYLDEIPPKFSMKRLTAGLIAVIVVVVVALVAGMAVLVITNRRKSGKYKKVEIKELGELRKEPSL

[2] = biological target: T2, Human TROP2 Protein, His Tag (Acro Biosystems) (human, UniProt P09758 27-274); experiment: BLI (Octet)
T2 construct: Bought protein; also called TACSTD2; not shown: His tag
T2 sequence: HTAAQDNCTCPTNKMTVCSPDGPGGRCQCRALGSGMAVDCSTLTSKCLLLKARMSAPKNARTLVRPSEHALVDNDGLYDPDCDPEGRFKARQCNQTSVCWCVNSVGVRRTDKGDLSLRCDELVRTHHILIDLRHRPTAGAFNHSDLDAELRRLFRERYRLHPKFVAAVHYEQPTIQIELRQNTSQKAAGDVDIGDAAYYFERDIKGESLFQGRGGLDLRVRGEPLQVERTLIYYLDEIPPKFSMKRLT

[3] = biological target: T3, Human TROP2 Protein, His Tag, Acro Biosystems (human, UniProt P09758 27-274); experiment: Octet (BLI)
T3 construct: Bought protein; not shown: His tag
T3 sequence: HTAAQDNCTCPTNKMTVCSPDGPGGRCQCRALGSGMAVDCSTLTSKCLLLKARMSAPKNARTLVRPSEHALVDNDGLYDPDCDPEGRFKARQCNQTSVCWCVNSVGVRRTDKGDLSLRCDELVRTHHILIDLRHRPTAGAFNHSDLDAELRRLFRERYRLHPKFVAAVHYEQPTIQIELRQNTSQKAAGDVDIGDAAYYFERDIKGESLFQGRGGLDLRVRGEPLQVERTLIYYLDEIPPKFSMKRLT

[4] = biological target: T1, TROP2 on TROP2-positive NCI-H1975 cells; experiment: binding to NCI-H1975 cells at pH 6.4, maximal MFI
[5] = biological target: T1, TROP2 on TROP2-positive NCI-H1975 cells; experiment: cell-based or functional assay; remark: listed apart in the source

B1: 170-DXd (antibody, IgG1, V domains shown)
VH: QVQLQESGPGLVKPSETLSLTCTVSGGSISSYGVHWIRQPPGKGLEWIGVIWTSGVTDYNSALMGRVTISVDTSKNQFSLKLSSVTAADTAVYYCARDGDYDRYTMDYWGQGTLVTVSS
VL: DIVMTQSPDSLAVSLGERATINCRASKSVSTSGYSYMHWYQQKPGQPPKLLIYLASNLHSGVPDRFSGSGSGTDFTLTISSLQAEDVAVYYCHHSRHLPYTFGQGTKLEIK
modifications: maleimide based GGFG-DXd conjugated to hinge cysteines, average DAR of about 4
[1]
  % efficiency @ 100 nM ADC (cytotoxicity in NCI-H1975 cells): 5.39%

B2: 169-DXd (antibody, IgG1, V domains shown)
VH: QVQLQESGPGLVKPSETLSLTCTVSGGSISSYGVHWIRQPPGKGLEWIGVIWTSGVTDYNSALMGRVTISVDTSKNQFSLKLSSVTAADTAVYYCARDGDYDRYTMDYWGQGTLVTVSS
VL: DIVMTQSPDSLAVSLGERATINCRASKSVSTSGYSYMHWYQQKPGQPPKLLIYLASNLESGVPDRFSGSGSGTDFTLTISSLQAEDVAVYYCQHSRELPYTFGQGTKLEIK
modifications: maleimide based GGFG-DXd conjugated to hinge cysteines, average DAR of about 4
[1]
  % efficiency @ 100 nM ADC (cytotoxicity in NCI-H1975 cells): -3.5%

B3: MYT12409 (hu7E6SVG variant, HCV substitutions at 33, 51) (antibody, V domains shown)
VH: QVQLQESGPGLVKPSETLSLTCTVSGGSISSYHVHWIRQPPGKGLEWIGVHWTSGVTDYNSALMGRVTISVDTSKNQFSLKLSSVTAADTAVYYCARDGDYDRYTMDYWGQGTLVTVSS
VL: DIVMTQSPDSLAVSLGERATINCRASKSVSTSGYSYMHWYQQKPGQPPKLLIYLASNLESGVPDRFSGSGSGTDFTLTISSLQAEDVAVYYCQHSRELPYTFGQGTKLEIK
[2]
  binding result: binds

B4: MYT12408 (hu7E6SVG variant, HCV substitutions at 33, 34) (antibody, V domains shown)
VH: QVQLQESGPGLVKPSETLSLTCTVSGGSISSYHHHWIRQPPGKGLEWIGVIWTSGVTDYNSALMGRVTISVDTSKNQFSLKLSSVTAADTAVYYCARDGDYDRYTMDYWGQGTLVTVSS
VL: DIVMTQSPDSLAVSLGERATINCRASKSVSTSGYSYMHWYQQKPGQPPKLLIYLASNLESGVPDRFSGSGSGTDFTLTISSLQAEDVAVYYCQHSRELPYTFGQGTKLEIK
[2]
  binding result: binds

B5: MYT11566 (WT sacituzumab variable regions) (antibody, human IgG1, V domains shown)
VH: QVQLQQSGSELKKPGASVKVSCKASGYTFTNYGMNWVKQAPGQGLKWMGWINTYTGEPTYTDDFKGRFAFSLDTSVSTAYLQISSLKADDTAVYFCARGGFGSSYWYFDVWGQGSLVTVSS
VL: DIQLTQSPSSLSASVGDRVSITCKASQDVSIAVAWYQQKPGKAPKLLIYSASYRYTGVPDRFSGSGSGTDFTLTISSLQPEDFAVYYCQQHYITPLTFGAGTKVEIK
notes: Human IgG1 heavy chain constant domain and Kappa light chain constant domain; also called Sacituzumab WT
[3]
  Kd: 600 pM
[4]
  Max MFI (@ pH 6.4)-H1975: 29500 MFI

B6: 112-DXd (antibody, IgG1, V domains shown)
VH: QVQLVQSGAEVKKPGASVKVSCKASGYTFTTAGMQWVRQAPGQGLEWMGWINTHSGVPKYAEDFKGRVTISADTSTSTAYLQLSSLKSEDTAVYYCARSGFGSSYWYFDVWGQGTLVTVSS
VL: DIQMTQSPSSLSASVGDRVTITCKASQDVSTAVAWYQQKPGKAPKLLIYSASYRYTGVPSRFSGSGSGTDFTLTISSLQPEDFAVYYCQQHYITPLTFGQGTKLEIK
modifications: maleimide based GGFG-DXd conjugated to hinge cysteines, average DAR of about 4
[1]
  % efficiency @ 100 nM ADC (cytotoxicity in NCI-H1975 cells): -1.22%

B7: MYT11635 (WT datopotamab variable regions) (antibody, human IgG1, V domains shown)
VH: QVQLVQSGAEVKKPGASVKVSCKASGYTFTTAGMQWVRQAPGQGLEWMGWINTHSGVPKYAEDFKGRVTISADTSTSTAYLQLSSLKSEDTAVYYCARSGFGSSYWYFDVWGQGTLVTVSS
VL: DIQMTQSPSSLSASVGDRVTITCKASQDVSTAVAWYQQKPGKAPKLLIYSASYRYTGVPSRFSGSGSGTDFTLTISSLQPEDFAVYYCQQHYITPLTFGQGTKLEIK
notes: Human IgG1 heavy chain constant domain and Kappa light chain constant domain; also called Datopotamab WT
[5]
  Cytotox Fold over datopotamab (FOD): 1 fold over datopotamab
[3]
  Kd: 1250 pM
[4]
  Max MFI (@ pH 6.4)-H1975: 25900 MFI
